experiment: soluble on expression in E. coli; label from the status in PepcDB or PDB records

Soluble on expression in E. coli, not soluble:
MHINRTGSSQPSIELERFYSASQSLASSSVRELSPAEHANLQAITDYLKDHVFAAHKLPLSESAVDQDAVHAHNEQLDKIIDARARRLLDEGETPATIADTFAKAEKFDRMATTASITLRATPFAAASVLQYMQPAINKGDWLPMPLKPLTPFVSGALSGIMDQVGTTVMNRATGNLHYLSTPPEKLHDAMAASVKRHSPGVMRQAVDLGIAIQAYSARNAVRTVLAPALASRPAVQGAVDISVSAAGGLAANAGFGNRMHSVQARDHLRGGAFVLGIKDQEPKADLSEETDWLVAYKAIKSASYSGAALNAGKRVAGLPLDVATDGLKAVRSLVSATGLAQNGLALAGGFAGVGKLQEMATKNITDPATKAAVSQLTNMAASTGVFAAWTTAAVATDPAVKKAESFLQDTVKSAASSSTSYVADQTVKLAKAGIDASGEAIAATGASLLDTLRRRNAREPDIEEGGIAAGSPSAVPFQPGRS
MHKAGLLGLCARAWNSVRMASSGMTRRDPLANKVALVTASTDGIGFAIARRLAQDGAHVVVSSRKQQNVDQAVATLQGEGLSVTGTVCHVGKAEDRERLVATAVKLHGGIDILVSNAAVNPFFGSIMDVTEEVWDKTLDINVKAPALMTKAVVPEMEKRGGGSVVIVSSIAAFSPSPGFSPYNVSKTALLGLTKTLAIELAPRNIRVNCLAPGLIKTSFSRMLWMDKEKEESMKETLRIRRLGEPEDCAGIVSFLCSEDASYITGETVVVGGGTPSRL
MHKTIAVLLGIVCFLPVMAKAGGAETDATDASDVKTLFFNHDDRVPVADPTQSPWDAIGQLETASGNLCTATLISPHIALTAGHCLLTPPKGKPDKAVALRFVARKGVWRYEIHGIEGRVEPSLGRRLKADGDGWIVPPAAASWDFGLVILRYPPSGITPVPLFTGDKAALTAALKAADRKVTQSGYPEDHLNALYSHQDCVVTGWAQNAVLSHQCDTLPGDSGSPLLLHTDSGWQLIGVQSSAPAAKDRWRADNRAISVTGFRDKLKALAQD
MHLNANLKYCCLWKLQSPHSCVPMLVWNCSLHPPSQYCSPLFETAVAENINRLSSHCIKKKSIQRGEKMKQTLRLLGAVTLLGITGCQFNQPPVSSIGAWEKPGADFTEIGKALLECGMPTPYDRDPENDNRSFNQMATIDACMLQAGFRYKYDVGGGMVWKS
MHRRAVVLFTAALLLGLGLPRASAESRQDEPTSLITSPGYTRTTASPGPGLTLFTYQNPDDDRVVHVLRADPDAAPLTVESTAGTSGARAEKTTDMLKSTTGYAPRWPHAGLNGGFWYRQGDTLAFMGISVQEGVVQSASCSAAGRGEAALIQHGRPYIGDFTTHLAVTAPGAAPMPLDGVNRHPGWMTGCAQGSGATADRSIGGGVFADASEIIAFTSRFKAPTPVPDADARFTEDDDPGAEAVVAADGTVLSLNPNGRGGVTVPTGGRVLQGTGTGADWLRAHATPGTDLAFEERLHDERFGDDIPLDSSVDVVNGHYPLVHNAQYAYTGQNTAVDPRSAIAVDGPGRTLFVTATGKSGRNGVTLDEFARILLDLGAVDGLNMDGGGSTTLVVEQAVVNRPSDSTGERPVADSLYIGHGGYGHYADLEHHHHHH
MHTKPPIERIMYIELRTSLELFRSDLVDLEALANAAKEALEQLPYIPKEPCGKGEDDPLSGPESALRTGRLCGLVCCTATAAEGALSTCSKLIDWAYENEPEGVDDAVLVDDIDDDDDDDDDGSNGANGGGGANGSGNGSNGSGNGSPPDGGVEGAAPSLDADELAQARPSRGGIALDLAQCATTTDRPVA
MHWRLTVLFFASAQLSEGCLPMVPPEEPVTPVPVCPAGWFQFQRATGLWCYIFATPGAGWTTPQAACQANYGANLNGFESAAERTQFIQDMLASNLAPYTFVHIGAMRQCAPCTVNDPFVWLNGVSNDNTFANDYDSLYDLTGDCLSMDLGNNGQYNDITCDAETAYSCGKPAA
MIARGSRAPRCPQCRVIDSYCLCAWRPTVAAESGMCLLMYDTEPMKPTNTGWLIADVIKDTYAFGWSRVEIDAHLRALLDDPQWQPYIVFPGEFVAQERVVAEVAREDGKRPLFILLDATWNEARKMFRKSPYLEKFPVLSLAPEQISRYRLRRSKRDDHFCTAEVAALCLELAGDVSASGVLDAYLDVFSAHYLGAKFQRPIDPDDVAHTYLKAFILEHHHHHH
MIDFGNFYSLIAKNHLSHWLETLPAQIANWQREQQHGLFKQWSNAVEFLPEIKPYRLDLLHSVTAESEEPLSAGQIKRIETLMRNLMPWRKGPFSLYGVNIDTEWRSDWKWDRVMPHLSDLTGRTILDVGCGSGYHMWRMIGAGAHLAVGIDPTQLFLCQFEAVRKLLGNDQRAHLLPLGIEQLPALKAFDTVFSMGVLYHRRSPLEHLWQLKDQLVNEGELVLETLVIDGDENTVLVPGDRYAQMRNVYFIPSALALKNWLKKCGFVDIRIADVSVTTTEEQRRTEWMVTESLADFLDPHDPGKTVEGYPAPKRAVLIARKP
MIDLKELKKYCNHSYLTIRNDKIIVGNKGLARLSKEKMRKIEMDFEIPVVYSRVFEEISERMGRYVSKNNIISPKDKILVGLSGGKDSLALLHLLEPYRRKYGVQIYAVTVDLNINGIRPWTESNKNVKMISEHCKNLNIPHEIIAHDGNVVEMSKILSENTKGIEYSPCFSCSMVRRHVLTNYAKNNFESDSNVKIAIGHTLEDNSDTIMANIFKGNVIKALEPIKNFNKTDVDFKDFKLNLKSCCMIRPMLNVSEEKIVKALVECDIEYYKDKDECPYSRHNGDGIRKKSHEVLKSLEEDVPNIREMIISSILNSIEQYKQK

Soluble on expression in E. coli, soluble:
MHHHHHHSSGLVPRGSGMKETAAAKFERQHMDSPDLGTDDDDKMKLQSPEFQSLFTEGLKSLTELFVKENHELRIAGGAVRDLLNGVKPQDIDFATTATPTQMKEMFQSAGIRMINNRGEKHGTITARLHEENFEITTLRIDVTTDGRHAEVEFTTDWQKDAERRDLTINSMFLGFDGTLFDYFNGYEDLKNKKVRFVGHAKQRIQEDYLRILRYFRFYGRIVDKPGDHDPETLEAIAENAKGLAGISGERIWVELKKILVGNHVNHLIHLIYDLDVAPYIGLPANASLEEFDKVSKNVDGFSPKPVTLLASLFKVQDDVTKLDLRLKIAKEEKNLGLFIVKNRKDLIKATDSSDPLKPYQDFIIDSREPDATTRVCELLKYQGEHCLLKEMQQWSIPPFPVSGHDIRKVGISSGKEIGALLQQLREQWKKSGYQMEKDELLSYIKKT
MHHHHHHSSGVDLGTENLYFQSMGAGRRESEPRPTSARQLDGIRNIVLSNPKKRNTLSLAMLKSLQSDILHDADSNDLKVIIISAEGPVFSSGHDLKELTEEQGRDYHAEVFQTCSKVMMHIRNHPVPVIAMVNGLATAAGCQLVASCDIAVASDKSSFATPGVNVGLFCSTPGVALARAVPRKVALEMLFTGEPISAQEALLHGLLSKVVPEAELQEETMRIARKIASLSRPVVSLGKATFYKQLPQDLGTAYYLTSQAMVDNLALRDGQEGITAFLQKRKPVWSH
MHHHHHHSSGVDLGTENLYFQSMIAKSFYDLSAINLDGEKVDFNTFRGRAVLIENVASLCGTTTRDFTQLNELQCRFPRRLVVLGFPCNQFGHQENCQNEEILNSLKYVRPGGGYQPTFTLVQKCEVNGQNEHPVFAYLKDKLPYPYDDPFSLMTDPKLIIWSPVRRSDVAWNFEKFLIGPEGEPFRRYSRTFPTINIEPDIKRLLKV
MHHHHHHSSGVDLGTENLYFQSMLAVHFDKPGGPENLYVKEVAKPSPGEGEVLLKVAASALNRADLMQRQGQYDPPPGASNILGLEASGHVAELGPGCQGHWKIGDTAMALLPGGGQAQYVTVPEGLLMPIPEGLTLTQAAAIPEAWLTAFQLLHLVGNVQAGDYVLIHAGLSGVGTAAIQLTRMAGAIPLVTAGSQKKLQMAEKLGAAAGFNYKKEDFSEATLKFTKGAGVNLILDCIGGSYWEKNVNCLALDGRWVLYGLMGGGDINGPLFSKLLFKRGSLITSLLRSRDNKYKQMLVNAFTEQILPHFSTEGPQRLLPVLDRIYPVTEIQEAHKYMEANKNIGKIVLELPQ
MHHHHHHSSGVDLGTENLYFQSMVPPIPKQDGGEQNGGMQCKPYGAGPTEPAHPVDERLKNLEPKMIELIMNEIMDHGPPVNWEDIAGVEFAKATIKEIVVWPMLRPDIFTGLRGPPKGILLFGPPGTGKTLIGKCIASQSGATFFSISASSLTSKWVGEGEKMVRALFAVARCQQPAVIFIDEIDSLLSQRGDGEHESSRRIKTEFLVQLDGATTSSEDRILVVGATNRPQEIDEAARRRLVKRLYIPLPEASARKQIVINLMSKEQCCLSEEEIEQIVQQSDAFSGADMTQLCREASLGPIRSLQTADIATITPDQVRPIAYIDFENAFRTVRPSVSPKDLELYENWNKTFGCGK
MHKTHSTMSGKSMKVIGVLALQGAFLEHTNHLKRCLAENDYGIKIEIKTVKTPEDLAQCDALIIPGGESTSMSLIAQRTGLYPCLYEFVHNPEKVVWGTCAGLIFLSAQLENESALVKTLGVLKVDVRRNAFGRQAQSFTQKCDFSNFIPGCDNFPATFIRAPVIERILDPIAVKSLYELPVNGKDVVVAATQNHNILVTSFHPELADSDTRFHDWFIRQFVSN
MHLDRQSLEKAKHLIQSGLIDTIEVGTIKGLQEIHRFLFEGLYEFAGKIRDKNIAKGNFRFANCLYLDLILPRIESMPQNNFNQIVEKYVEMNIAHPFLEGNGRATRIWLDLLLKKELKKIVLWDRIDKAAYLSAMERSPVNDLEIKTLLKKHLSSNTNDPLTLIKGITQSYYYEGL
MHMSEANHKNIVVVGAGIIGTSVATMLSKVSPNWHIDMFERLEGAGIESSNENNNAGTGHAALCELNYTVEQDDGSIDASKAQEINEQFELSRQFWGNLVKNGDISNPEEFIQPLPHISFVMGPTNVNFLRKRYETLKTLPMFDTIEYTEDMETMRKWMPLMMENREPGHQMAASKIDEGTDVNYGALTRKLAHYLEQKSNVSLKYNHDVVDLTQREDGKWEVVVENRETKEKVTKIADKVFIGAGGHSIPLLQKSGVKQREHLGGFPISGQFLRCTNPDIIKQHAAKVYSKEPQGKPPMTVPHLDTRYINGKQTLLFGPYANIGPKFLKFGSNLDLFESIKPYNITTMLASAVKNVPLIKYSIDQMIKTKEGCMNYLRTFIPDAKDEDWELYTAGKRVQVIKDSEQHGKGFVVFGTEVVNSDDNSMIALLGESPGASTSLSVVLEVLEKNFADDKEAWEPVVKEMVPTYGRSLINDEKLMRETRRETSKNLHLNRMAGDPLEHHHHHH
MHNQAPIQRRKSTRIYVGNVPIGDGAPIAVQSMTNTRTTDVEATVNQIKALERVGADIVRVSVPTMDAAEAFKLIKQQVNVPLVADIHFDYRIALKVAEYGVDCLRINPGNIGNEERIRMVVDCARDKNIPIRIGVNAGSLEKDLQEKYGEPTPQALLESAMRHVDHLDRLNFDQFKVSVKASDVFLAVESYRLLAKQIDQPLHLGITEAGGARSGAVKSAIGLGLLLSEGIGDTLRVSLAADPVEEIKVGFDILKSLRIRSRGINFIACPTCSRQEFDVIGTVNALEQRLEDIITPMDVSIIGCVVNGPGEALVSTLGVTGGNKKSGLYEDGVRKDRLDNNDMIDQLEARIRAKASQLDEARRIDVQQVEK
MHSTPKRVLLAGATGLTGEHLLDRILSEPTLAKVIAPARKALAEHPRLDNPVGPLAELLPQLDGSIDTAFCCLGTTIKEAGSEEAFRAVDFDLPLAVGKRALEMGARHYLVVSALGADAKSSIFYNRVKGELEQALQEQGWPQLTIARPSLLFGPREEFRLAEILAAPIARILPGKYHGIEACDLARALWRLALEEGKGVRFVESDELRKLGK

Reference: the DeepSol protein solubility set
